# Results taken from patent US20250090663A1 (MYELOID THERAPEUTICS, published 2025).
# Substitutions are numbered along the chain they refer to.
# T1: IL13RA2 Protein, Rhesus macaque, His tag (Rhesus macaque, UniProt A0A5F8A9D9 27-343)
# T1 construct: the summary sentence says cynomolgous; also called Rhesus macaque IL13R alpha 2 protein with His tag; cynomolgous IL 13RA2 (as the text calls it); not shown: His tag
# T1 sequence: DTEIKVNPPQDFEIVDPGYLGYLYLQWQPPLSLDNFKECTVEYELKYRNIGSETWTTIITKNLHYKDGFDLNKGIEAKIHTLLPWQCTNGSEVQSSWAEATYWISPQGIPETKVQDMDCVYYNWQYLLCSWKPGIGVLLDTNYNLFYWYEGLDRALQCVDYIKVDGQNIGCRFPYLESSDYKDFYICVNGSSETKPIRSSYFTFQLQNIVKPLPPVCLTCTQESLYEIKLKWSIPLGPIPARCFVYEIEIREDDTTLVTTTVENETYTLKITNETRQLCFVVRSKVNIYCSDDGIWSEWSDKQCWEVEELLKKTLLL
# T2: IL13RA2 Protein, mouse Recombinant- His tag (mouse, UniProt O88786 22-334, limits assumed)
# T2 construct: also called mouse recombinant His tagged protein; not shown: His tag
# T2 sequence (looked up): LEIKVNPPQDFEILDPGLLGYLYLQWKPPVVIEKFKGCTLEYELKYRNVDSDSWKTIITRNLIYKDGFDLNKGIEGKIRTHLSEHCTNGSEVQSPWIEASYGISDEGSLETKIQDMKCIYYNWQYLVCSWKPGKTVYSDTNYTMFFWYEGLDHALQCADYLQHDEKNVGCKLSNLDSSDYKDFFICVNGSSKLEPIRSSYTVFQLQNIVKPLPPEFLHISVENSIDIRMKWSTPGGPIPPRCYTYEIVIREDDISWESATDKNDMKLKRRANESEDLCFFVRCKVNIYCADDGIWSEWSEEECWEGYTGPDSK
# T3: IL13RA2 Protein, Human, Recombinant (ECD)-His tag (human, UniProt Q14627 27-343)
# T3 construct: extracellular domain; also called human recombinant protein extracellular domain; human IL13Ra2-His6
# T3 sequence: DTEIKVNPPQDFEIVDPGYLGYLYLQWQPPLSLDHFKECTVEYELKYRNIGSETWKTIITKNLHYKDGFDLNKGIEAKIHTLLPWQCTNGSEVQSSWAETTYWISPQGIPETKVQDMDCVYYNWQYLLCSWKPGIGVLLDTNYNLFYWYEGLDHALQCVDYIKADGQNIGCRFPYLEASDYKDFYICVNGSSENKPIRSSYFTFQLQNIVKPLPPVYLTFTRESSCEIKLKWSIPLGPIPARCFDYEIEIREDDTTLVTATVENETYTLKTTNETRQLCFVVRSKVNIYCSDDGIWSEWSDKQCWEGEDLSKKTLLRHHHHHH
# T4: Human CD70 mFc (human, UniProt P32970 39-193)
# T4 construct: not shown: mFc
# T4 sequence (looked up): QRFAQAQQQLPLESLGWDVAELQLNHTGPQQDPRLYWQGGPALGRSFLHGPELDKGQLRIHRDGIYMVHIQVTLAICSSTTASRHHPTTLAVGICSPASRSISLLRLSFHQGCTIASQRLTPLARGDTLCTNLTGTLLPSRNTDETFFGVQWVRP
# T5: Mouse CD70 mFc (mouse, UniProt O55237 45-195)
# T5 construct: not shown: mFc
# T5 sequence (looked up): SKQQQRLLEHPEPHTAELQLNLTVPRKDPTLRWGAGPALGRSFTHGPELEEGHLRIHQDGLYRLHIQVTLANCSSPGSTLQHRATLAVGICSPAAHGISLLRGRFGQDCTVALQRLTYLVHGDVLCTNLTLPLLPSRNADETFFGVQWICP
# B1: VH57f5 (VHH)
# VHH: QVQLQESGGGLVQPGGSLRLSCAASGSIFNTNGMGWYRQAPGKQRERVAGISSGGNTVYAASVEGRFTISRDNAKNTGYLQMNNLKPEDTAVYYCRVAGRQDDYWGQGTQVTVSS
# modifications: biotinylated (site not stated)
# notes: Expressed in E. coli and 6xHIS purified; also called VH57f5 Biotin; Anti-IL13Rα2 VH57
# B2: IL13Ra2_2TIG4_f3 (VHH)
# VHH: QVQLQESGGGLVQPGGSLRLSCAASGRTYGMGWFRQAPGKEREFVAVGVWSSGNTYYADFARGRFTISRDNAKNTVYLQMDSLKPEDTAVYYCAAPRYSSYTTYHAAYDYWGPGTQVTVSS
# modifications: biotinylated (site not stated)
# notes: Expressed in E. coli and 6xHIS purified; also called IL13Ra2_2TIG4_f3-Biotin
# B3: VH43f2 (VHH)
# VHH: QVQLQESGGGLVQPGGSLRLSCTASGSIRGIGYMAWGRQGPGKPRELIATINSAGDTNYAESVKGRFTVSRDNAENTLYLQMNNLKSEDTAVYYCNARPGLQSYWGQGTQVTVSS
# modifications: biotinylated (site not stated)
# notes: Expressed in E. coli and 6xHIS purified; also called VH43f2-Biotin; Anti-IL13Rα2 VH43
# B4: VH52f3 (VHH)
# VHH: QVQLQESGGGLVQPGGSLRLSCEVSGSIFSINRMAWYRQVPEKEREMVAQITYGDTIKYYGSAKGRFTISRDSAKNAVYLQMNSLKPEDTAVYRCNIVGVLTTGHYEDSFWGQGTQVTVPS
# modifications: biotinylated (site not stated)
# notes: Expressed in E. coli and 6xHIS purified; also called VH52f3 Biotin; Anti-IL13Rα2 VH52
# B5: VH53f3 (VHH)
# VHH: B4 VHH with F29S, E42G, R71K, D108N, P120S
# modifications: biotinylated (site not stated)
# notes: Expressed in E. coli and 6xHIS purified; also called VH53f3 Biotin; Anti-IL13Rα2 VH53
# B6: Anti-CD70 VHH, 3HCS92 (VHH)
# VHH: QVQLQESGGGLVQAGGSLRLSCAAPRSIFSINAMGWYRQAPGKQRELVAAITSGGSPTYADSVKGRFTISRDNAKNTVYLQMNSLKAEDTAVYYCATGPYGLDNALDAWGQGTQVTVSS
# notes: Soluble His-tagged VHH monomer captured on HIS1K biosensors; also called H1; H1 (WT)
# B7: Anti-CD70 VHH clone 3CEK186 (VHH)
# VHH: QVQLQESGGGLVQTGGSLRLACTASGFTFDDYAIAWFRQAPGKEREFVAAISWSGGTTHYADSVKGRFTISRDNAKNTLYLQMSSLKPEDTAVYFCAKSLRSSPSSRWFGSRGQGTQVTVSS
# notes: Soluble His-tagged VHH monomer captured on HIS1K biosensors; also called C1; C1 (WT)
# B8: VH36f1 (VHH)
# VHH: QVQLQESGGGSVQPGGSLRLSCAASGINISSDVMEWFRQGPGEQRELVAHITTNSRTEYADFVKGRFTISRANAKNTLYLQMNGLKPEDTALYYCALRRGGRILWGQGTQVTVSS
# modifications: biotinylated (site not stated)
# notes: Expressed in E. coli and 6xHIS purified; also called VH36f1 Biotin; Anti-IL13Rα2 VH36
# Assays:
# [1] = target: T1, IL13RA2 Protein, Rhesus macaque, His tag; experiment: BLI; summary of Tables 9A-9C
# Protocol: (§1) Binding Affinity for the VH domains with IL13Rα2 are calculated as follows: Biotinylated VHHs were individually captured on streptavidin biosensors. VHH-captured biosensors were dipped in wells containing antigen and the binding response was measured. Biosensors were later dipped in buffer wells to observe the dissociation of bound antigen from captured VHH. (Schematic representation of the process depicted in FIG. 26, upper left corner). In this case, the IL13RA2 protein used was human recombinant protein extracellular domain; Rhesus macaque IL13R alpha 2 protein with His tag or mouse recombinant His tagged protein or irrelevant protein His tagged were used as controls.
# [2] = target: T2, IL13RA2 Protein, mouse Recombinant- His …; experiment: BLI; summary of Tables 9A-9C
# Protocol: as §1
# [3] = target: T3, IL13RA2 Protein, Human, Recombinant …; experiment: BLI; biotinylated VHH captured on streptavidin biosensor, antigen 1 uM in solution
# Protocol: as §1
# [4] = target: T1, IL13RA2 Protein, Rhesus macaque, His tag; experiment: as above
# Protocol: as §1
# [5] = target: T2, IL13RA2 Protein, mouse Recombinant- His …; experiment: as above
# Protocol: as §1
# Human CD70 mFc = target: T4, Human CD70 mFc; experiment: BLI, single point; His-tagged VHH captured on HIS1K biosensor, antigen 1 uM in solution
# Protocol: (§2) Next the polypeptides were characterized for CD70 binding kinetics, e.g. by affinity measurements. An affinity measurement method used in this study is illustrated in FIG. 1A, left bottom graphic image. Briefly, His-tagged VHH constructs were individually captured on HIS1K biosensors. VHH-captured biosensors were dipped in wells containing antigen and binding responses were measured. Biosensors were later dipped in buffer wells to observe the dissociation of bound antigen from the VHHs. Biosensors were regenerated and similar binding kinetic assays were performed for subsequent antigens. Single point KD analysis using BioLayer interferometry with a soluble VHH format was undertaken.
# Mouse CD70 mFc = target: T5, Mouse CD70 mFc; experiment: as above
# Protocol: as §2
Binder,Binding Response [3] [nm],Kd [3] [nM],koff [3] [s⁻¹],t½ [3] [min],Binding Response [4] [nm],Kd [4] [nM],koff [4] [s⁻¹],kon [4] [M⁻¹ s⁻¹],t½ [4] [min],Binding Response [5] [nm],also measured
B1,1.36,1.84,0.000397,29,0.93,112,0.00485,41700,2.4,1.17,fold decrease in affinity compared to human counterpart [1]: ~2 fold; fold decrease in affinity compared to human counterpart [2]: ~2 fold; Kd [5]: 33.7 nM; koff [5]: 0.00485 s⁻¹; kon [5]: 140000 M⁻¹ s⁻¹; t½ [5]: 2.46 min
B2,0.72,5.02,0.000697,17,1.17,3.62,0.000388,107000,30,-0.02,–
B3,0.92,4.65,0.000941,12.3,0.96,27.1,0.00164,60500,7.04,-0.04,–
B4,0.87,≤ 0.806,≤ 0.0001,≥ 116,1.13,≤ 1.49,≤ 0.0001,67000,≥ 116,-0.02,–
B5,1.04,0.89,0.000118,98,1.35,≤ 1.42,≤ 0.0001,70200,≥ 116,-0.01,–
B6,–,–,–,–,–,–,–,–,–,–,Binding Response (Human CD70 mFc): 0.87 nm; Kd (Human CD70 mFc): 5.29 nM; koff (Human CD70 mFc): 0.000377 s⁻¹; kon (Human CD70 mFc): 71300 M⁻¹ s⁻¹; t½ (Human CD70 mFc): 31 min; Binding Response (Mouse CD70 mFc): 0.03 nm; Kd (Mouse CD70 mFc): 334 nM; koff (Mouse CD70 mFc): 0.000427 s⁻¹; kon (Mouse CD70 mFc): 1280 M⁻¹ s⁻¹; t½ (Mouse CD70 mFc): 27 min
B7,–,–,–,–,–,–,–,–,–,–,Binding Response (Mouse CD70 mFc): 0.01 nm
B8,0.67,1.3,0.000133,87,1.02,≤ 1.44,≤ 0.0001,69300,≥ 116,-0.01,–
